T1: Human PTK7/CCK4 Protein, His Tag, Acro Biosystems PT7-H52H3 (human, UniProt Q13308 31-704)
T1 construct: bought protein; also called Human PTK7 Protein, His Tag, Acro Biosystems; not shown: His tag
T1 sequence: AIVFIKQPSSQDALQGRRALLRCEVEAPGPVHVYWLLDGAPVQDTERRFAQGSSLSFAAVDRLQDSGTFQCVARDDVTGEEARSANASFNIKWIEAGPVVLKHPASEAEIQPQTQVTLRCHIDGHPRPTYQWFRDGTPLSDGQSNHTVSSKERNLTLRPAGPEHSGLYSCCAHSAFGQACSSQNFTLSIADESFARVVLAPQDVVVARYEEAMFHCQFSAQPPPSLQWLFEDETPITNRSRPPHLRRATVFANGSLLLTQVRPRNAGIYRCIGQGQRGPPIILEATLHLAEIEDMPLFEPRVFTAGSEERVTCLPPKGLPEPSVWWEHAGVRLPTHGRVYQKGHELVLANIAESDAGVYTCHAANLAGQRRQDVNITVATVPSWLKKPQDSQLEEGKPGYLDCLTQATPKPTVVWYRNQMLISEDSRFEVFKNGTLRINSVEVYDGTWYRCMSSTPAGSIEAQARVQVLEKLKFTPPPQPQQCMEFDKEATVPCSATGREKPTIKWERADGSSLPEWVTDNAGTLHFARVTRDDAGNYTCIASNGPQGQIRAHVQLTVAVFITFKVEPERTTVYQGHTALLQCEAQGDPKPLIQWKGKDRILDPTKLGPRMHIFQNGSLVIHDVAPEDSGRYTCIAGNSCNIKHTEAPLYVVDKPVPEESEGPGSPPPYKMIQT

B1: MYT11236 (antibody, V domains shown)
VH: EVQLVESGGGLVQPGGSLRLSCTASGIDLSSYVMGWVRQAPGKGLEWVGYIYGGGGTYYATWARGRFTISRDTSKNTVYLQMNSLRAEDTAVYFCARAAADFYFNLWGQGTLVTVSS
VL: EIVMTQSPSTLSASVGDRVIITCQASQSISSYLAWYQQKPGKAPKLLIYDISDLHSGVPSRFSGSGSGAEFTLTISSLQPDDFATYYCQSYYWISNSGAAFGQGTKLTVL
notes: IgG
B2: MYT11249 (antibody, V domains shown)
VH: EVQLVESGGGLVQPGGSLRLSCTASGIDLSSYVMGWVRQAPGKGLEWVGYIYGGGGTYYATWARGRFTISRDTSKNTVYLQMNSLRAEDTAVYFCARAAADFYFNLWGQGTLVTVSS
VL: EIVMTQSPSTLSASVGDRVIITCQASQSISSYLAWYQQKPGKAPKLLIYDISDLASGVPSRFSGSGSGAEFTLTISSLQPDDFATYYCQSYYWISNSGAHFGQGTKLTVL
notes: IgG
B3: MYT11248 (antibody, V domains shown)
VH: EVQLVESGGGLVQPGGSLRLSCTASGIDLSSYVMGWVRQAPGKGLEWVGYIYGGGGTYYATWARGRFTISRDTSKNTVYLQMNSLRAEDTAVYFCARAAADFYFNLWGQGTLVTVSS
VL: EIVMTQSPSTLSASVGDRVIITCQASQSISSYLAWYQQKPGKAPKLLIYDISDLASGVPSRFSGSGSGAEFTLTISSLQPDDFATYYCQSYYWISNSGHAFGQGTKLTVL
notes: IgG
B4: MYT11240 (antibody, V domains shown)
VH: EVQLVESGGGLVQPGGSLRLSCTASGIDLSSYVMGWVRQAPGKGLEWVGYIYGGGGTYYATWARGRFTISRDTSKNTVYLQMNSLRAEDTAVYFCARAAADFYFNLWGQGTLVTVSS
VL: EIVMTQSPSTLSASVGDRVIITCQASQSISSYLAWYQQKPGKAPKLLIYDISDLASGVPSRFSGSGSGAEFTLTISSLQPDDFATYYCQSHYWISNSGAAFGQGTKLTVL
notes: IgG
B5: MYT11245 (antibody, V domains shown)
VH: EVQLVESGGGLVQPGGSLRLSCTASGIDLSSYVMGWVRQAPGKGLEWVGYIYGGGGTYYATWARGRFTISRDTSKNTVYLQMNSLRAEDTAVYFCARAAADFYFNLWGQGTLVTVSS
VL: EIVMTQSPSTLSASVGDRVIITCQASQSISSYLAWYQQKPGKAPKLLIYDISDLASGVPSRFSGSGSGAEFTLTISSLQPDDFATYYCQSYYWISHSGAAFGQGTKLTVL
notes: IgG
B6: MYT11246 (antibody, V domains shown)
VH: EVQLVESGGGLVQPGGSLRLSCTASGIDLSSYVMGWVRQAPGKGLEWVGYIYGGGGTYYATWARGRFTISRDTSKNTVYLQMNSLRAEDTAVYFCARAAADFYFNLWGQGTLVTVSS
VL: EIVMTQSPSTLSASVGDRVIITCQASQSISSYLAWYQQKPGKAPKLLIYDISDLASGVPSRFSGSGSGAEFTLTISSLQPDDFATYYCQSYYWISNHGAAFGQGTKLTVL
notes: IgG
B7: MYT11238 (antibody, V domains shown)
VH: EVQLVESGGGLVQPGGSLRLSCTASGIDLSSYVMGWVRQAPGKGLEWVGYIYGGGGTYYATWARGRFTISRDTSKNTVYLQMNSLRAEDTAVYFCARAAADFYFNLWGQGTLVTVSS
VL: EIVMTQSPSTLSASVGDRVIITCQASQSISSYLAWYQQKPGKAPKLLIYDISDLASGVPSRFSGSGSGAEFTLTISSLQPDDFATYYCHSYYWISNSGAAFGQGTKLTVL
notes: IgG
B8: MYT11247 (antibody, V domains shown)
VH: EVQLVESGGGLVQPGGSLRLSCTASGIDLSSYVMGWVRQAPGKGLEWVGYIYGGGGTYYATWARGRFTISRDTSKNTVYLQMNSLRAEDTAVYFCARAAADFYFNLWGQGTLVTVSS
VL: EIVMTQSPSTLSASVGDRVIITCQASQSISSYLAWYQQKPGKAPKLLIYDISDLASGVPSRFSGSGSGAEFTLTISSLQPDDFATYYCQSYYWISNSHAAFGQGTKLTVL
notes: IgG
B9: MYT11244 (antibody, V domains shown)
VH: EVQLVESGGGLVQPGGSLRLSCTASGIDLSSYVMGWVRQAPGKGLEWVGYIYGGGGTYYATWARGRFTISRDTSKNTVYLQMNSLRAEDTAVYFCARAAADFYFNLWGQGTLVTVSS
VL: EIVMTQSPSTLSASVGDRVIITCQASQSISSYLAWYQQKPGKAPKLLIYDISDLASGVPSRFSGSGSGAEFTLTISSLQPDDFATYYCQSYYWIHNSGAAFGQGTKLTVL
notes: IgG
B10: MYT11258 (antibody, V domains shown)
VH: EVQLVESGGGLVQPGGSLRLSCTASGIDLHRYSMGWVRQAPGKGLEWVGIISYGGSTYYASWAKGRFTISRDTSKNTVYLQMNSLRAEDTAVYFCARVGYPGYSGYGYAFDAFDPWGQGTLVTVSS
VL: EIVMTQSPSTLSASVGDRVIITCQSSKSVYNDNWLSWYQQKPGKAPKLLIYGASTLASGVPSRFSGSGSGAEFTLTISSLQPDDFATYYCAGGYSSSSDNGFGQGTKLTVL
notes: IgG
B11: MYT11309 (antibody, V domains shown)
VH: EVQLVESGGGLVQPGGSLRLSCTASGIDLSRYSMGWVRQAPGKGLEWVGIISYGGSTYYASWAKGRFTISRDTSKNTVYLQMNSLRAEDTAVYFCARVGYPGYSGYGYAFDAFDPWGQGTLVTVSS
VL: EIVMTQSPSTLSASVGDRVIITCQSSKSHYNDNWLSWYQQKPGKAPKLLIYGASTLASGVPSRFSGSGSGAEFTLTISSLQPDDFATYYCAGGYSSSSDNGFGQGTKLTVL
notes: IgG
B12: MYT11322 (antibody, V domains shown)
VH: EVQLVESGGGLVQPGGSLRLSCTASGIDLSRYSMGWVRQAPGKGLEWVGIISYGGSTYYASWAKGRFTISRDTSKNTVYLQMNSLRAEDTAVYFCARVGYPGYSGYGYAFDAFDPWGQGTLVTVSS
VL: EIVMTQSPSTLSASVGDRVIITCQSSKSVYNDNWLSWYQQKPGKAPKLLIYGASTLHSGVPSRFSGSGSGAEFTLTISSLQPDDFATYYCAGGYSSSSDNGFGQGTKLTVL
notes: IgG
B13: MYT11289 (antibody, V domains shown)
VH: EVQLVESGGGLVQPGGSLRLSCTASGIDLSRYSMGWVRQAPGKGLEWVGIISYGGSTYYASWAKGRFTISRDTSKNTVYLQMNSLRAEDTAVYFCARVGYPGYSHYGYAFDAFDPWGQGTLVTVSS
VL: EIVMTQSPSTLSASVGDRVIITCQSSKSVYNDNWLSWYQQKPGKAPKLLIYGASTLASGVPSRFSGSGSGAEFTLTISSLQPDDFATYYCAGGYSSSSDNGFGQGTKLTVL
notes: IgG
B14: MYT11279 (antibody, V domains shown)
VH: EVQLVESGGGLVQPGGSLRLSCTASGIDLSRYSMGWVRQAPGKGLEWVGIISYGGSTYYASWAKHRFTISRDTSKNTVYLQMNSLRAEDTAVYFCARVGYPGYSGYGYAFDAFDPWGQGTLVTVSS
VL: EIVMTQSPSTLSASVGDRVIITCQSSKSVYNDNWLSWYQQKPGKAPKLLIYGASTLASGVPSRFSGSGSGAEFTLTISSLQPDDFATYYCAGGYSSSSDNGFGQGTKLTVL
notes: IgG
B15: MYT11285 (antibody, V domains shown)
VH: EVQLVESGGGLVQPGGSLRLSCTASGIDLSRYSMGWVRQAPGKGLEWVGIISYGGSTYYASWAKGRFTISRDTSKNTVYLQMNSLRAEDTAVYFCARVGYHGYSGYGYAFDAFDPWGQGTLVTVSS
VL: EIVMTQSPSTLSASVGDRVIITCQSSKSVYNDNWLSWYQQKPGKAPKLLIYGASTLASGVPSRFSGSGSGAEFTLTISSLQPDDFATYYCAGGYSSSSDNGFGQGTKLTVL
notes: IgG
B16: MYT11263 (antibody, V domains shown)
VH: EVQLVESGGGLVQPGGSLRLSCTASGIDLSRYSMHWVRQAPGKGLEWVGIISYGGSTYYASWAKGRFTISRDTSKNTVYLQMNSLRAEDTAVYFCARVGYPGYSGYGYAFDAFDPWGQGTLVTVSS
VL: EIVMTQSPSTLSASVGDRVIITCQSSKSVYNDNWLSWYQQKPGKAPKLLIYGASTLASGVPSRFSGSGSGAEFTLTISSLQPDDFATYYCAGGYSSSSDNGFGQGTKLTVL
notes: IgG
B17: MYT11272 (antibody, V domains shown)
VH: EVQLVESGGGLVQPGGSLRLSCTASGIDLSRYSMGWVRQAPGKGLEWVGIISYGGSTHYASWAKGRFTISRDTSKNTVYLQMNSLRAEDTAVYFCARVGYPGYSGYGYAFDAFDPWGQGTLVTVSS
VL: EIVMTQSPSTLSASVGDRVIITCQSSKSVYNDNWLSWYQQKPGKAPKLLIYGASTLASGVPSRFSGSGSGAEFTLTISSLQPDDFATYYCAGGYSSSSDNGFGQGTKLTVL
notes: IgG
B18: MYT11267 (antibody, V domains shown)
VH: EVQLVESGGGLVQPGGSLRLSCTASGIDLSRYSMGWVRQAPGKGLEWVGIISHGGSTYYASWAKGRFTISRDTSKNTVYLQMNSLRAEDTAVYFCARVGYPGYSGYGYAFDAFDPWGQGTLVTVSS
VL: EIVMTQSPSTLSASVGDRVIITCQSSKSVYNDNWLSWYQQKPGKAPKLLIYGASTLASGVPSRFSGSGSGAEFTLTISSLQPDDFATYYCAGGYSSSSDNGFGQGTKLTVL
notes: IgG

target: T1, Human PTK7/CCK4 Protein, His Tag, Acro …; experiment: BLI, antibody on anti-human Fc sensor, 50 nM PTK7

Binding result, binds:
B1
B2
B3
B4
B5
B6
B7
B8
B9
B10
B11
B12
B13
B14
B15
B16
B17
B18

Source: patent US20260209386A1 (MYTHIC THERAPEUTICS, published 2026)
